# Measured values taken from doi:10.1101/2025.02.27.640524 (bioRxiv, 2025).
# T1: VelB-GFP (full length A. nidulans Velvet-like B fused to GFP) (Aspergillus nidulans, UniProt C8VTS4 1-369)
# T1 sequence: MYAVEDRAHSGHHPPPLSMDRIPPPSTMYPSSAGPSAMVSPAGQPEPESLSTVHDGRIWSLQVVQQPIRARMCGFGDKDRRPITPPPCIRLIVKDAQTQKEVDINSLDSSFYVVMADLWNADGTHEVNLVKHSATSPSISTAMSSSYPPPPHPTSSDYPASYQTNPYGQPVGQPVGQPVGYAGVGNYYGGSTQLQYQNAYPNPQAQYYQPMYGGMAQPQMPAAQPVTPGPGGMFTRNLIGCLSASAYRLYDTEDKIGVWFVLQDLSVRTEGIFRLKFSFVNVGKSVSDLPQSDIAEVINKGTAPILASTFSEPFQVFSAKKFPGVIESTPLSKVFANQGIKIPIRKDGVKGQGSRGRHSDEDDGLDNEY
# Target: T1, VelB-GFP (full length A. nidulans …)
# Assay: co-IP
binder,measurement,value
VosA-HA (A. nidulans VosA with HA tag) (natural protein) MSAANYPDPSLPRPSTSDDFELIVRQNPNRARVAGGKEKERKPVDPPPIVQIRVREEGTYLAQHYLQSPYFFMSCSLYDAQEDAPASIPPSTALTGTLVSSLHRLKDVDNTDGGFFVWGDLSIKVEGDFRLKFSLFEMRKTDVVFLKSIVSERFTVSPPKSFPGMAESTFLSRSFADQGVKLRIRKEPRTLIKRTAPRPEEYPQAAIPRSPSDRTAMQIPGSSYPAPPYQPTSRDYSYYAPVKRQRTSVDYGARGMYDADGRMRQMETYPQTATLYGQPGGYPTPMMGYPSGHGGVPDYAMSYGLPPSAQVPQMQDPAAQSRSSQQATMQSLGMVNPPGTPTPDSARAMMQQAYPRPQYSASTAVLPPLQQSRNYPQGTNGATRGYYEQSPQATPILPSQPLGTSEAERYGVPPGHTGYDHTGSANGTPR,fold abundance of co-precipitated VosA against the VelB^ΔIDD-GFP strain,10 fold
